Laboratory results taken from patent US7118886 (HSC RESEARCH AND DEVELOPMENT LIMITED PARTNERSHIP, dated 2006).

Target: T1, GAL4 DNA binding domain fused to the five SH3 domains of Ese1 (amino acids 665-1213) (mouse, UniProt P04386 1-147 (Saccharomyces cerevisiae entry))
T1 construct: Yeast two-hybrid bait; also called pGBT9Ese1A3.3; SH3 domain bait of Ese1
Assay: yeast two-hybrid screen with amino acids 665-1213 of Ese1 as bait

- binding result: binds
B1: Mouse YNK1 partial protein, GAL4 activation domain library clone (other, not shown: large carriers)
chain: LRAEGAKFRAVLDKAVQADGQVKERYQSHRDTIALLCKPEPELNAAIPSANPAKTMQGSEVVSVLKSLLSNLDEIKKERESLENDLKSVNFDMTSKFLTALAQDGVINEEALSVTELDRIYGGLTSKVQESLKKQEGLLKNIQVSHQEFSKMKQSNNEANLREEVLKNLATAYDNFVELVANLKEGTKFYNELTEILVRFQNKCSDIVFARKTERDELLKDLQQSIAREPSAPSIPPPAYQSSPAAGHAAAPPTPAPRTMPPAKPQPPARPPPPVLPANRVPPASAAAAPAGVGTASAAPPQTPGSAPPPQAQGPPYPTYPGYPGYCQMPMPMGYNPYAYGQYNMPYPPVYHQSPGQAPYPGPQQPTYPFPQPPQQSYYPQQ
